We go through 17 sequences from a protein production outcome set (Wang et al. 2014).

A short description of this series: label from the status in PepcDB records.

“MTSLNVLVAVCMAYVILLFGVAFAADRLSSTGRTTWLRSPLVYTLSLSIYCTAWTFYGAVGYAARSGLEFVTIYLGPTLVMIGWWWGLRKLVRVGRSQRVTSIADLISSRYGKSNTLAVCVTLLAVIGVTPYIALQLQSITLSFDIFAEADPVSRPGEGSSAFWVACGLAVFAILFGTRNLDANERHHGVVTAVAIEAVVKLVALLAVGVFVVWGIAGGLGDTLARIDASEIGVWQVDHGRWATITFLAAAAFVCLPRMFQVMVVENDDERHLRTAAWAFPLYLMLMSLFVVPIAVVGLELMPEGANPDLFVLTIPLAEGQETLAMLSFLGGFSSATSMVIVAAMALSTMVSNHIVMPIWLNAQGSGASVSGDVRSVVLYARRVSIAVILALGYFYYRLSGGGAALASIGLIAFAGIAQILPALVGGLFWRGATRTGALVGLTVGFVLWLYTLLLPGMGAGVIAPQVMEHGLFGLSWLRPQALFGIAGMDPMVHSVMWSLSLNTAAFCIASLLSFPSPLERLQGAQFVNVFDHSAGPRGWTGSVAQSEDLMIMSQRIMGAREAQEFFQSEAMAQGSRAYLPEPTPAFLERLERELSGSVGAATAHAMIGQIVGGSSVSVEDLLAVADESAQLLEYSSRLEAKSAELSRTARKLREANEKLTQISLQKDAFLSQISHELRTPMTSIRAFSEILRDTDGLAPVDKTRYAAIIHDEALRLTRLLDDLLDLSVLENGQVTLNMGQGRLVDVLDRAMATALTGTDRPLRVRRHRGAERIVLRTDLDRLSQVFINLITNAQKYCDAADPELSVTVHDVGGRIVVDLIDNGSGIPRDARKMVFEKFARVGAEKAGGAGLGLAICREIMQRLGGDISYLSGQEGGAFRVSLPVGMEIAAQ”: the protein production result is “failed”.
For “MTSLPTPIIGLIVAVFVLVWLVLRTRVHALIAMLAAACIAGLLGGMGIDKTLSVITSGFGTTLGSIGLVIGLGVMMGRLLEVSGAAERIAWSFIKWLGKRREEWALAITGYIVSIPIFVDSAFVILYPVAKALAKSGKRSLLTLGVALAGGLAVTHHTVPPTPGPLGVAGIFNVDIGAMLLTGMALAVPCVIGIVFYAQWLDKRYPDFVPRTLNADEVNAALEQYNKEKEQKDLPSLTLSLLPIVVPIVLIFLKAICSTLATIEGWSGLATHPVVQAINFVGSPVIALAISVLLAVYTLVPRMDKHTTAERLEEGLQSAGIILLVTGAGGALGAILRDSGAGQQLAEQVANLPISPILIPFIVATLVRLIQGSGTVAMITAASISAPILAQIPGINMLLAAQAATMGSLFFGYFNDSLFWVVNRMMGVSDVKQQMVVWSVPTTIAWAIGGTGVALINLLFGSGGSWLDPLLPIVVLAAIMLWVRWQAQGIKDKLVVKD”, the protein production entry is “failed”.
The same measure for “MTSLTQRSSGLVQRRTEASRNAADKERAAGGGAGSSEDDAQSRRDEQDDDDKGDSKETRLTLMEEVLLLGLKDREGYTSFWNDCISSGLRGCMLIELALRGRLQLEACGMRRKSLLTRKVICKSDAPTGDVLLDEALKHVKETQPPETVQNWIELLSGETWNPLKLHYQLRNVRERLAKNLVEKGVLTTEKQNFLLFDMTTHPLTNNNIKQRLIKKVQEAVLDKWVNDPHRMDRRLLALIYLAHASDVLENAFAPLLDEQYDLATKRVRQLLDLDPEVECLKANTNEVLWAVVAAFTK”: “failed”; for “MTSPSPDQVIRQEILALSAYHVPPAKDMVKLDAMENPYRLPPFLCEEISRIAADTSINRYPDPHAAALKEVLSTTLSVPAGMEIMLGNGSDEIIQIIMLAAAKPEAKLLTIEPGFAMFKMIATFANMQYIGIPLKPDFSLDIDRMLAAIERHQPSVIFLAYPNNPSGNLFDTSALEKIIEISPGLVVIDEAYHPFAGKSFIGRLADYPNLLVMRTLSKLGLAGLRLGLLAGRPEWLSHLEKLRLPYNVNVITQLVATKIMQHYDVLQQQADAIRQTRTRLRTFLENLNGIEVFPSNANFILFRLDGASQIFRLLQQHGILVKNLDNSHPLLKNCLRVTVGTPEENDRFCNTLQDLIAGN”: “failed”.
The same measure for “MTSQVANPPVQSIRLLFSALLLVMLLSALDQTIVSTALPTIVGELGGLDKLSWVVTAYILSSTIAVPLYGKFGDLFGRKIVLQVAIGLFLVGSALCGLAQNMTQLVLMRGLQGLGGGGLMVISMAAVADVIPPANRGRYQGLFGGVFGLATVIGPLIGGFLVQHASWRWIFYINLPLGLFALLVIGAVFHSSNKRSQHQIDWLGAIYLSMALLCIILFTSEGGSVHAWNDPQLWCILAFGIVGIIGFIYEERMAAEPIIPLALFRNRSFLLCSLIGFVIGMSLFGSVTFLPLYLQVVKEATPTEAGLQLIPLMGGLLLTSIISGRIISRTGKYRLFPILGTLLGVTGMVLLTRITIHSPLWQLYLFTGVLGAGLGLVMQVLVLAVQNAMPAQMYGVATSGVTLFRSIGGSIGVALFGAVFTHVLQSNLQQLLPEGAVLPPGMNPVAVQHLPADIRLDYLDAFGAAIHAAFLMAAGIMAVAFVLSWLLKEAPLKTATH”: “failed”; for “MTSSSPPAIPADARRQHAERTTLVSAAVNCALSAGQIAAGLWSHSQGLVADGLHTLSDLIADGIVFIANRNSHKGPDEDHQYGHARYENAASLGLGLLLMAAGAGMIWSALASLSAPHGAAPVHGLALWVALAALAAKEGLFRYMLAVARRIGSRMLVANAWHARSDAVSSLVAAVGVAGNLMGFRWLDPVAACVVGAMIGRVGIRFGWEALNDLMDRALPPAQVQAIRASLAATPGVINVHDLRTRVTGDQALVDAHIEVDPRVSVSEGHAIAVRARANVLAAHTAMAVLDVQLHVDPRERVYTDPLPLPDRDALCAVLAQALPPGTPLDARHCLLHYVEGGVEVDLILPPSLADHAAPVAETVRARWHGRVRLRALTAASGATARGPVRP”: “failed”; for “MTSTASSTDIRQGQAADEQWPSWQQRLRRFGYTAPPRTDVRDRLVPPFSEPSPRLWAAIGLRQEVADRVTRWSAWGGPLLVTLLAGLLRFWNLGSPKAVIFDETYYAKDAWALIHNGYEANWAKDANDLILQGNGHVAIPTDPAYVVHPPVGKYVIGLGEWLFGFTPFGWRFMTALLGTLSVLLLCRIGRRLFRSTFLGCLAGALMAVDGLHFVMSRTSLLDGVLMFFVLAAFGCLVVDRDRARARLAAALPADADGVVRPDAHTAETTRLGPRPWRWLAGLMLGLALGTKWNALYVMAAFCVMAVLWDVGSRRVAGARRPYAAVLRRDTGITFLATVPVAVATYLVSWTGWILSPANGSGGYFRNWAATDGKGGHWTWLPDWLRSLWHYEHEVYEFHVGLSSPHQYQSNPWSWLVAGRPVSYFYESPSPGKDGCPADAGEKCAREVLALGTPLLWWAACFAVLYVLWRWLFRRDWRAGAIACGIAAGWLPWMMYQERTIFYFYAVVFVPFLCLAVAMMIGAILGPPGSGERRRVVGAAGAGVLVLLIAWNFIYFWPLYTGTAIPIDDWRSRMWLDTWV”: “failed”.
The same measure for “MTTALRQPTLSSQCLAEFLGTALLIFFGTGCVAALKVAGASFGLWEISIIWGVGVSMAIYLTAGISGAHLNPAVSIALTLFAGFDKRKLPFYMLAQVCGAFCGAALVYTLYSNLFFDFEQAHAMLRGSEGSLELASVFSTYPHPSLSTSQAFLVEVVITAILMAVIMALTDDNNGLPRGAMAPLLIGLLIAVIGSAMGPLTGFAMNPARDFGPKLMTFLAGWGEIAFTGGRDIPYFLVPVFAPILGACLGAASYRGLIARNLPMAPAATPETNDIRQGDTQAN”: “failed”; for “MTTASGPGDLPAGSPVSSLHEALDQCMTALDLFLTNQFSEALSYLKPRTKESMYHSLTYATILEMQAMMTFDPQDILLAGNMMKEAQSLCQRHRRKSSMTDSFSNLVHRPTIDQFTEEEIHAEVCYAECLLQRAALTFLQDENMVSFIKGGIKVRNSYQTYKELDSLVQSSQYSKGESHRHFEGGVKLGVGAFNLTLSMLPTRILRLLEFVGFSGNKDYGLLQLEEGATGHSFRAVLCVMLLLCYHTFLTFVLGTGNVNIEEAEKLLKPYLNRYPKGAIFLFFAGRIEAIKGNIDAAVRRFEECCEAQQHWKQFHHMCYWELMWCFTYKGQWKMAYFYADLLSKENSWSKATYIYMKAAYLSMFGKEDYKPFGDNEVELFRAVPGLKLKIAGKSLPTEKFAIRKSRRYLSPNPISLPIPALEMMYIWNGYAVIGKQPTLTDGMLEVITKAEEMLAMGPENEYSADDDCLVKLLKGLCLKYLGRIQEAEENFRSISANEKKIKYDHYLIPNALLELALLFMEQGRNEEAIKLLESAKQNYKNYSMESRTHLRIQAATLQARSSLEDGNRSLVSSVSL”: “failed”; for “MTTATAGLAVELKQSTAQAHEKAEHSTFMSDLLKGRLGVAEFTRLQEQAWLFYTALEQAVDAVRASGFAESLLDPALNRAEVLARDLDKLNGSSEWRSRITASPAVIDYVNRLEEIRDNVDGPALVAHHYVRYLGDLSGGQVIARMMQRHYGVDPEALGFYHFEGIAKLKVYKDEYREKLNNLELSDEQREHLLKEATDAFVFNHQVFADLGKGL”: “not failed”.
Consider “MTTDRPLSPPLDHAWIAARIPHSGAMCLLDQVVTWDDTHIRCTTTSHRAPDNPLRAHGRLAAVCGIEYAAQAMAVHGAILGNAQDRPRAGFLASVRSVEAHVERLDTIEAPLTIEAERIGGDGNNVLYRFSVRCGERVLLTGRAAVVLDAAGLGLPDAGALAKANAQAR”, for which the protein production result was “failed”.
In the case of “MTTEVKQSPRERLLEAAAALTYRDGVGIGVEALCKAAGVSKRSMYQLFESKDELLAASLKERSAAFVAKALPPADDGRSPRERILYVFERVESQAGAPDFQGCRYLAVQIELKDQAHPASRVAYQIKADLMAFFRSEAERGGASDPDLLARQLILVFDGASARAGIGADNLTGLIVPTLTTLLDAADMH” it was “not failed”; in that of “MTTFSHSSTTPSVSVTTASGNNQSQLVATPVPDEQRISFWPQHFGLIPQWVTLEPRVFGWMDRLCEDYCGGIWNLYTLNNGGAFIAPEPDEDDGETWILFNAMNGNRAEMSPEAAGIAACLMTYSHHACRTECYAMTVHYYRLRDYALQHPECSAIMRIID”, “failed”.
In the case of “MTTGDGRSRLLAAATRLIRTQGFAATSVEAICREAGVTKGAFFHHFPSKEALGVAAAEAWSDVTGRLFAEAPYHRPADPLDRVLAYIDFRRALVAGEIADYTCLVGTLVQEAYGSDPIRAACGASILGHAGTLEADMAAAAEARGVADVDPASLARHTQAVLQGAFILAKAGGGAAAVEEALDHLKRYLRLLFANPGASGA” it was “failed”.
In the case of “MTTHDRVRLQLQALEALLREHQHWRNDEPQPHQFNSTQPFFMDTMEPLEWLQWGLIPRMHDLLNNNQPLPGAFAVAPYYEMALATDHPQRALILAELEKLDALFADDASLEHHHHHH” it was “failed”; in that of “MTTIALLGNPNVGKTTLFNALTGSNQHVGNWPGVTVDKKEGFFNSNKIVDLPGIYALDTFSNEEKVSKKFLESGDVDLILNIVDASNLDRNLYLTMQLKDFKKPIVLLLNMNDIAEKKGIKIDPKKLEKAFNLKVIPITASKKEGLDEVKEFLNKGNFEKYLDKNTYSFKDEAHTYKFIEDKLSDCFNRSGNSSTTLTDKLDKVFLNPWLAYPLFIALMYFVFQFTFSWVGQPISDALDGFLGDTFMPYLSDLLSGTAPWFQSLLVDGIVAGVGGIIVLLPIILALFLCIAILEDSGYMARVAFLMDKFMRKIGLSGKAFLPMITGFGCTVPAIMSARTLESEKDRKLTALLAPFMSCNARLPVYVIFAGLFFPDNASMVVASLYILGILVAFILGLVFKNTLFKKDEEPFIIELPEYKVPEVRSVLAQLWDKSKSFLKKAGTIIFAMSVVIWFLQSFNFTGMVEDITHSFLYNIGSFIAPIFAPLGFGDWQASVSLLTGLMAKETIISTMEVIYKGDLTHMLPQFFTALSSYSFMVFVLLYTPCISVVGVMKKEYGGKFTVLSVIFQFLVAWISAFIIYHIGLLIF”, “failed”.
Take “MTTIYLVRHGQASFGKANYDELSENGQAQATILGQYLKEILKEQPYVIAGTMKRHLQTAQGALKECFPDTHIYTHAGWNEFNHQQVFANYEPRFKQPELLKQDVAKEQNPRAYLAKIFESAISRWTDGEFHHEYEESWPKFKQRVEIALKMLCDELAQTKPRYAVVFTSGGVISVIAGKILELNPNRTFALNWAITNTSLTTLRLVGNEPQLLSLNEHHFIKVVNPALLTWI”: the protein production entry is given as “failed”.
